Several values for one entry are separate records, joined by “and”; a condition that tells them apart may be missing. Equal values may be shown once.
Target: human IL-12 receptor on HEK-Blue IL-12 reporter cells (human) (UniProt P42701)
Sequence (Q99665 24-862, chain 2 of 2, other chains not shown): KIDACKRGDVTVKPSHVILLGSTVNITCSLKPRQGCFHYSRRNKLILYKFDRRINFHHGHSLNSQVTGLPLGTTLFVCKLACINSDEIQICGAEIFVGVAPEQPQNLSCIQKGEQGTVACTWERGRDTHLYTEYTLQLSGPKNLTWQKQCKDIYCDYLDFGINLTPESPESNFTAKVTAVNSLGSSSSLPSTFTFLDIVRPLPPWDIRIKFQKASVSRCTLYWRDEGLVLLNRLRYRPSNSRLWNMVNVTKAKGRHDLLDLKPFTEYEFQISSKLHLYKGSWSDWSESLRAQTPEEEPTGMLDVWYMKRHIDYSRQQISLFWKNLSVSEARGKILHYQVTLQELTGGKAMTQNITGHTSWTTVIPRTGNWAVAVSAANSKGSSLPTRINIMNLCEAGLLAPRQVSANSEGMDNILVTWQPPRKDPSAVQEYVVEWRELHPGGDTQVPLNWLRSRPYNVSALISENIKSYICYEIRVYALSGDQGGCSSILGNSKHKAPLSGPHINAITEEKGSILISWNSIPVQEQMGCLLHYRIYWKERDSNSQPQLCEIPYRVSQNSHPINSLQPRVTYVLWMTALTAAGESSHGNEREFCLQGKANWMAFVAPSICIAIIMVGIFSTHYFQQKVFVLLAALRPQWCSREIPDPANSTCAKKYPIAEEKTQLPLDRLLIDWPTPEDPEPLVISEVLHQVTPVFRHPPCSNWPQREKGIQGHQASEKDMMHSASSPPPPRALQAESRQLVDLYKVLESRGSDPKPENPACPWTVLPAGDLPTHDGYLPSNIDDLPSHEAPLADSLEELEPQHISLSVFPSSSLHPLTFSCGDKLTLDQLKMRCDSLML

EC50 (read off the curve): 90 pM and 50 pM
Substance: IL12 (ligand)

Source: patent US20230265146A1
